Assay results published in PMC6510816.

Assays:
YAP [1] = molecular target: YAP (UniProt P46937); assay: Flag-14-3-3ζ co-IP, YAP blot; conditions: reference: Flag-14-3-3ζ wild type; sites S37
YAP [2] = molecular target: YAP (UniProt P46937); assay: His-YAP Ni-NTA pull-down of Flag-14-3-3ζ IPs; conditions: reference: wild type with rERK2; sites S37

Row | binding against the reference (YAP [1]) | binding against the reference (YAP [2]) | Substance
1 | stronger | – | 14-3-3ζ (from UniProt P63104) Flag-14-3-3ζ S37A
2 | – | gained | 14-3-3ζ (from UniProt P63104) S37A with rERK2
